Data from PMC10326835 (microLife, 2023).
Where two headings read alike, the source gives them in different places.

T1: RelA (Escherichia coli, UniProt P0AG20)
T1 sequence (P0AG20 1-744): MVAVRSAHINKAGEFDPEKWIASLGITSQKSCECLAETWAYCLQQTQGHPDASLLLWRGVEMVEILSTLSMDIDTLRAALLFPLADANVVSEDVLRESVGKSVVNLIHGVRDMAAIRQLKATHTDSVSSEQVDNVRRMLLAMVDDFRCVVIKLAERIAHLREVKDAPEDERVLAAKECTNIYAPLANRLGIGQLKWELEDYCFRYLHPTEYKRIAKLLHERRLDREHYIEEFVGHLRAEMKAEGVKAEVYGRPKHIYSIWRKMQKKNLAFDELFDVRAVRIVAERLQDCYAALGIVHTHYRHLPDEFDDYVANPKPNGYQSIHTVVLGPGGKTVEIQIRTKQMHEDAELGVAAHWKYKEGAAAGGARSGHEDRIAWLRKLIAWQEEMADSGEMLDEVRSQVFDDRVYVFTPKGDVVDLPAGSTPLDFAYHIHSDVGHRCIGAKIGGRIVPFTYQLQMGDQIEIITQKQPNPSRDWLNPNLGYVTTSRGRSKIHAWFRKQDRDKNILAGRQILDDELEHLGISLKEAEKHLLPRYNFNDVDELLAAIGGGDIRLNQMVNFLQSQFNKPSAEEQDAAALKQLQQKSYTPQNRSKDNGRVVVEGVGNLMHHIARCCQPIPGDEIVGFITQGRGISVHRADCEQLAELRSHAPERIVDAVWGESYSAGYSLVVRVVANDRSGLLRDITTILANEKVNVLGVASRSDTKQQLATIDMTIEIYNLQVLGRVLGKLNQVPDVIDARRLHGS

T2: ^strepLpxA (E. coli, UniProt P0A722 1-262)
T2 sequence: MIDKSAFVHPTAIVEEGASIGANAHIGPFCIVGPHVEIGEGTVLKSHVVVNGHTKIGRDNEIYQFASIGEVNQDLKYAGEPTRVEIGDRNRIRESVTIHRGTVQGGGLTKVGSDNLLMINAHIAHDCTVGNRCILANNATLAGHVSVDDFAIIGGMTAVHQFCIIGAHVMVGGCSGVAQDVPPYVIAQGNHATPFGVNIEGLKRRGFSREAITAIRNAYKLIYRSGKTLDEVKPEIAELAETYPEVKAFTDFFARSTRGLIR


Assays:
RelA = molecular target: T1, RelA; assay: DRaCALA with […]-ppGpp in overexpression lysate; type: cell-based
ObgE = ObgE (Escherichia coli, UniProt P42641); assay: DRaCALA with […]-ppGpp in overexpression lysate; type: cell-based
Sequence of ObgE (P42641 whole entry): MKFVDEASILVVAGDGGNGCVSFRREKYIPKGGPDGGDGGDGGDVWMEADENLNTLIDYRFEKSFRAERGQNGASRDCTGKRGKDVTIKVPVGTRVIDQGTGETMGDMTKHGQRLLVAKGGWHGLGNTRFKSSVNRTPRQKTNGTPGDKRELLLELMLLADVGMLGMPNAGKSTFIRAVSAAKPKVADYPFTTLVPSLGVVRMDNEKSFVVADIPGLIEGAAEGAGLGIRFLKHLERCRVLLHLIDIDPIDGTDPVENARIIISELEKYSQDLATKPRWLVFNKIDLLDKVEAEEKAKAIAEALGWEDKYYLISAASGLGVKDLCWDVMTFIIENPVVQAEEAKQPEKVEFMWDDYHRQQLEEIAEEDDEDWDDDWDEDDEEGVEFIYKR

SpeF = SpeF (Escherichia coli, UniProt P24169); assay: DRaCALA with […]-ppGpp in overexpression lysate; type: cell-based
Sequence of SpeF (P24169 whole entry): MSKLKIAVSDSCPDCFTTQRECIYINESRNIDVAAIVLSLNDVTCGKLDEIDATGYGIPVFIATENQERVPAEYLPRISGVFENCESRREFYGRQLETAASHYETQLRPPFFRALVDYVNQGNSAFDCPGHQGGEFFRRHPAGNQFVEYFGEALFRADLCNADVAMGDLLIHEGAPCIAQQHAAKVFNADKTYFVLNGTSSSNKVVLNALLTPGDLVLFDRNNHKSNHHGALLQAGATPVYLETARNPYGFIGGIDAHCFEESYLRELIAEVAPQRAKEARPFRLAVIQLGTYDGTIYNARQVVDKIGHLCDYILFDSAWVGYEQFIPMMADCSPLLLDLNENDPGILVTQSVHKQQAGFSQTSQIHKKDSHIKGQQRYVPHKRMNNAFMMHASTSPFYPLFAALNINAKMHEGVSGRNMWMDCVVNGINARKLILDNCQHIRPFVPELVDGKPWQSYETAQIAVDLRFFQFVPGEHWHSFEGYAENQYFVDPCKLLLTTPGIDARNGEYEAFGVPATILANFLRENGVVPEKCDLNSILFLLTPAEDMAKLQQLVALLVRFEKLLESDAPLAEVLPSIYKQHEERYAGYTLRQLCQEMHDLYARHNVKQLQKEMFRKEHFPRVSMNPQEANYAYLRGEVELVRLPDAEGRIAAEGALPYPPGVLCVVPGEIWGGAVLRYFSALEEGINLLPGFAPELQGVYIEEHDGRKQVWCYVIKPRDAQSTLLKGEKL

purified protein = substrate: CC(=O)N[C@H]1[C@@H](OP(=O)(O)OP(=O)(O)OC[C@H]2O[C@@H](n3ccc(=O)[nH]c3=O)[C@H](O)[C@@H]2O)O[C@H](CO)[C@@H](O)[C@@H]1O; assay: purified protein
^strepLpxA [1] = molecular target: T2, ^strepLpxA; assay: MST
^strepLpxA [2] = molecular target: T2, ^strepLpxA; assay: MST; remark: listed apart in the source

Row | binding result (^strepLpxA [1]) | binding result (^strepLpxA [2]) | Molecule | further results
1 |  | binds | ^HisRnhA (enzyme, E. coli, UniProt P0A7Y4 1-155, looked up, fluorescently labeled with the His-Tag Labeling Kit RED-tris-NTA) MLKQVEIFTDGSCLGNPGPGGYGAILRYRGREKTFSAGYTRTTNNRMELMAAIVALEALKEHCEVILSTDSQYVRQGITQWIHNWKKRGWKTADKKPVKNVDLWQRLDAALGQHQIKWEWVKGHAGHPENERCDELARAAAMNPTLEDTGYQVEV | 
2 | binds |  | ^His-SUMORnhB (enzyme, E. coli, UniProt P10442 1-198, looked up, fluorescently labeled with the His-Tag Labeling Kit RED-tris-NTA) MIEFVYPHTQLVAGVDEVGRGPLVGAVVTAAVILDPARPIAGLNDSKKLSEKRRLALYEEIKEKALSWSLGRAEPHEIDELNILHATMLAMQRAVAGLHIAPEYVLIDGNRCPKLPMPAMAVVKGDSRVPEISAASILAKVTRDAEMAALDIVFPQYGFAQHKGYPTAFHLEKLAEHGATEHHRRSFGPVKRALGLAS | 

The next lines start with the molecule.

Row | Molecule | binding result (^strepLpxA [1]) | binding result (^strepLpxA [2]) | further results
3 | Nc1nc2c(ncn2[C@@H]2O[C@H](COP(=O)(O)OP(=O)(O)O)[C@@H](OP(=O)(O)OP(=O)(O)O)[C@H]2O)c(=O)[nH]1 [ppGpp] |  |  | % (reference binding) (RelA): 100 % (reference binding); % relative to RelA (ObgE): 86 ± 12 % relative to RelA; % relative to RelA (SpeF): 73 ± 12 % relative to RelA
4 | LpxA (Escherichia coli K-12) (protein) MIDKSAFVHPTAIVEEGASIGANAHIGPFCIVGPHVEIGEGTVLKSHVVVNGHTKIGRDNEIYQFASIGEVNQDLKYAGEPTRVEIGDRNRIRESVTIHRGTVQGGGLTKVGSDNLLMINAHIAHDCTVGNRCILANNATLAGHVSVDDFAIIGGMTAVHQFCIIGAHVMVGGCSGVAQDVPPYVIAQGNHATPFGVNIEGLKRRGFSREAITAIRNAYKLIYRSGKTLDEVKPEIAELAETYPEVKAFTDFFARSTRGLIR |  |  | Km (purified protein): 494 µM
5 | ^His-SUMORnhA (enzyme, E. coli, UniProt P0A7Y4 1-155, looked up, fluorescently labeled with the His-Tag Labeling Kit RED-tris-NTA) MLKQVEIFTDGSCLGNPGPGGYGAILRYRGREKTFSAGYTRTTNNRMELMAAIVALEALKEHCEVILSTDSQYVRQGITQWIHNWKKRGWKTADKKPVKNVDLWQRLDAALGQHQIKWEWVKGHAGHPENERCDELARAAAMNPTLEDTGYQVEV | binds |  | 
6 | ^HisRnhB (enzyme, E. coli, UniProt P10442 1-198, looked up, fluorescently labeled with the His-Tag Labeling Kit RED-tris-NTA) MIEFVYPHTQLVAGVDEVGRGPLVGAVVTAAVILDPARPIAGLNDSKKLSEKRRLALYEEIKEKALSWSLGRAEPHEIDELNILHATMLAMQRAVAGLHIAPEYVLIDGNRCPKLPMPAMAVVKGDSRVPEISAASILAKVTRDAEMAALDIVFPQYGFAQHKGYPTAFHLEKLAEHGATEHHRRSFGPVKRALGLAS |  | binds | 
